The text below walks through data of publication PMC4405576, “The Crystal Structure and Small-Angle X-Ray Analysis of CsdL/TcdA Reveal a New tRNA Binding Motif in the MoeB/E1 Superfamily” (PLoS ONE, 2015).

In series [1] the test system is TcdA (CsdL) (Escherichia coli). The series is described as follows: intrinsic fluorescence quenching. To be noted: native tRNA modifications possible, not determined.
The next series deals with T1, CsdL/TcdA (Escherichia coli, UniProt Q46927).
T1 sequence (Q46927 1-268): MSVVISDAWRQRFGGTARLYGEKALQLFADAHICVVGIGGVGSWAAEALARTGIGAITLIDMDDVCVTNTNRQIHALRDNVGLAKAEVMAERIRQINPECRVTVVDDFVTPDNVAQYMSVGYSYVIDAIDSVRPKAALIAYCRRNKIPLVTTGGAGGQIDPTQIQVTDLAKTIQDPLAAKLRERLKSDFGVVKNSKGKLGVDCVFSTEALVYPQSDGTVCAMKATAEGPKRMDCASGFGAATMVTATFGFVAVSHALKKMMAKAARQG
The experiment in a line: X-ray crystallography. As to conditions: crystals in 0.05 M potassium phosphate, 10% PEG1000, basic pH, 20 °C; 1.77 Å; K+ and Na+ bound; nucleotide-binding site crystallisation; 1.89 Å; AMP as obtained directly from the cell (co-purified); n.

Series [2] has as its target tRNA threonylcarbamoyladenosine dehydratase A (TcdA) (E. coli) (UniProt Q46927). The experiment in a line: SEC; analytical gel filtration of TcdA alone; data not shown. A general note: Size exclusion chromatography separates by hydrodynamic size, large species first.
For series [3] the target is unchanged. The series is described as follows: AUC; sedimentation velocity and sedimentation equilibrium, 20°C, 20 mM HEPES, 100 mM KCl, 50 mM NaCl, pH 7.4; TcdA alone.
Series [4] shares this target. The series is described as follows: SAXS; purified TcdA, batch setup, three concentrations between 0.5-5 mg/ml, 5°C, 20 mM sodium/potassium phosphate pH 7.4, 300 mM NaCl, 2 mM β-mercaptoethanol.

A word on the Kd: it is the equilibrium constant for the complex coming apart. Read a low Kd as higher affinity. Compound tRNALys(UUU), overexpressed in E. coli gave a Kd in series [1] of 3000 nM.
Consider `Nc1ncnc2c1ncn2[C@@H]1O[C@H](COP(=O)(O)O)[C@@H](O)[C@H]1O` [AMP], for which the X-ray crystallography result on CsdL/TcdA is reported as “the nucleotide-binding residues stabilize AMP in a manner analogous to ATP”.
Usually stoichiometry N stands for the number of molecules, sites or subunits per partner or assembly. “tRNA threonylcarbamoyladenosine dehydratase A (TcdA) (from UniProt Q46927 1-268) (enzyme)”: the stoichiometry N in series [2], in series [3] and in series [4] was 2 in each case.
